In general, stoichiometry N refers to the number of molecules, sites or subunits per partner or assembly.

Data set [1] in a line: Liposome leakage (carboxyfluorescein release). Type of data set: biochemical. The note with it: pH 6.0, % ± SD of leakage with Triton X-100, CF fluorescence 520 nm, 37°C, at least triplicate, DOPC/cholesterol liposomes. The procedure:
Dry lipid films were prepared by dissolving dioleoylphosphatidylcholine (1,2-dioleoyl-sn-Glycero-3-phoshocholine, >99% purity, Avanti Polar Lipids, Alabaster, AL) (60 mol%) (DOPC) and either ergosterol or cholesterol (both >99% purity, Sigma) (40 mol%) in chlorofom, and then removing the solvent by evaporation under vacuum overnight. Subsequently, buffer (10 mM Tris, pH 7.4) was added together with 0.1 M carboxyfluorescein (CF) (Sigma, St Louis, MO). After hydration, the lipid mixture was subjected to eight freeze-thaw cycles consisting of freezing in liquid nitrogen and heating to 60°C. Unilamellar liposomes of about Ø140 nm were generated by multiple extrusions through polycarbonate filters (pore size 100 nm) mounted in a LipoFastminiextruder (Avestin, Ottawa, Canada) at 22°C. Untrapped CF was then removed by two gel filtrations (Sephadex G-50) at 22°C, with Tris buffer as eluent. CF release was determined by monitoring the emitted fluorescence at 520 nm from liposome dispersions (10 mM lipid in 10 mM Tris). An absolute leakage scale was obtained by disrupting the liposomes at the end of the experiment through addition of 0.8 mM Triton X100 (Sigma, St Louis, MO), causing 100% release and dequenching of CF. Although calcein is frequently used for pH-dependent leakage studies, the high charge of this dye has been noted to influence its leakage behavior in the presence of highly cationic peptides. Instead, therefore, CF was used as a leakage marker at both pH 6.0 and 7.4, avoiding pH-dependent fluorescence effects through neutralization prior to probing the limiting leakage in case of pH 6.0 leakage. Throughout, a SPEX-fluorolog 1650 0.22-m double spectrometer (SPEX Industries, Edison, NJ) was used for the liposome leakage assay. Measurements were performed in at least triplicate at 37°C.

Data set [2] is described as follows: Size exclusion chromatography (dimerization). Type of data set: physicochemical. The note with it: pH 7.5; 50 mM Tris, 150 mM NaCl; 1 mM calcium or 1 mM EDTA; HiPrep 16/60 Sephacryl S 100. An excerpt:
Supplementary file ppat.1002625.s004.tif: Figure S3 Seize exclusion chromatography of MSP. […] (TIF) Click here for additional data file.
For orientation: In gel filtration, larger molecules generally elute earlier.

The test system of data set [3] is C. albicans. The data set can be described thus: Scanning electron microscopy of C. albicans. Type of data set: cell-based, Candida albicans. Conditions: 5 h; 20 µM MSP with 40 µM EDTA, or EDTA alone. The procedure: Specimens were washed with cacodylate buffer, and dehydrated with an ascending ethanol series from 50% (v/v) to absolute ethanol. The specimens were then subjected to critical-point drying in carbon dioxide, with absolute ethanol as intermediate solvent, mounted on aluminum holders, sputtered with 30 nm palladium/gold and examined in a JEOL JSM-350 scanning electron microscope. A small volume from each of the samples was also plated to check antifungal activity.

Data set [4] relates to C. albicans. As to the kind of experiment: Antifungal gel overlay assay (AU-PAGE). In kind it is cell-based, Candida albicans. As for the experimental part: Gel overlay assay was performed essentially as described. Briefly, duplicate samples were run on native Acid Urea (AU-PAGE) gels in 5% (v/v) acetic acid at 100 V for 1 h 20 min. Candida albicans was grown over night, washed and resuspended in 10 mM NaPO4 pH 7.4 and approximately 1×10^5 CFU were added to 12 ml melted underlay agarose (10 mM NaPO4, pH 7.4, 0.03% SAB, 1% agarose type 1 (Sigma, St. Louis, MO)) and poured into a square Petri dish. One AU-gel was stained with Coomassie brilliant blue and one AU gel was washed 3×4 min in 10 mM NaPO4, pH 7.4 and then placed on top of the agarose and incubated for 4 h at 37°C. The AU gel was then removed and an overlay agarose (6% SAB, 1% agarosetype 1 (Sigma)) was poured on top of the underlay and incubated over night at 30°C. To make the clearing zones more visible, the agarose was stained with Coomassie brilliant blue followed by destaining.

Data set [5] deals with the molecule itself. As to the kind of experiment: SEC; HiPrep 16/60 Sephacryl S 100 column; 50 mM Tris, 150 mM NaCl, pH 7.5, with 1 mM calcium or 1 mM EDTA; native MSP.
In another data set the test system is S. agalactiae (SB1). As to the kind of experiment: Antibacterial CFU assay. In kind it is cell-based. The note with it: purified MSP 10 µM + 20 µM EDTA or recombinant dialyzed MSP 10 µM + 10 µM EDTA; neutral pH; data not shown. The procedure: (§1) E. coli (strain 37.4), S. aureus (strain 5120), S. pyogenes (M5 Manfredo), S. agalactiae (SB1), and E. faecalis (strain 2374) were grown in THY medium (Todd Hewitt with addition of yeast) and on THY agar plates at 37°C with 5% (v/v) CO2. Candida albicans was grown over night, washed, and resuspended in 10 mM Tris, 5 mM glucose, pH 7.4 or pH 4. Approximately 4×10^3 to 10^4 CFU of C. albicans were incubated with the test substance in low or neutral pH buffer for 4 h at 37°C. After incubation, the suspension was diluted and plated. Colonies were counted after two days incubation of the plates at 30°C. Bacteria from overnight cultures were inoculated in fresh medium and grown for 3 h, washed in 10 mM Tris, 5 mM glucose pH 7.4. Approximately 8×10^4 CFU were incubated with sample in 10 mM Tris, 5 mM glucose pH 7.4 or pH 4 for 1 h at 37°C, diluted, plated and incubated over night at 37°C and the colonies counted.

The test system of data set [6] is S. pyogenes (M5 Manfredo). As to the kind of experiment: Antibacterial CFU assay. In kind it is cell-based. The note with it: purified MSP 10 µM + 20 µM EDTA or recombinant dialyzed MSP 10 µM + 10 µM EDTA; neutral pH; data not shown. The procedure: as §1
The next data set has as its system S. aureus (strain 5120). As to the kind of experiment: Antibacterial CFU assay. In kind it is cell-based. The note with it: purified MSP 10 µM + 20 µM EDTA or recombinant dialyzed MSP 10 µM + 10 µM EDTA; neutral pH; data not shown. The procedure: as §1
A further data set deals with E. coli (strain 37.4). The data set can be described thus: Antibacterial CFU assay. Type of data set: cell-based. The note with it: purified MSP 10 µM + 20 µM EDTA or recombinant dialyzed MSP 10 µM + 10 µM EDTA; low and neutral pH; data not shown. The procedure: as §1
Data set [7] has as its system E. faecalis (strain 2374). The data set can be described thus: Antibacterial CFU assay. In kind it is cell-based. The note with it: purified MSP 10 µM + 20 µM EDTA or recombinant dialyzed MSP 10 µM + 10 µM EDTA; low and neutral pH; data not shown. As for the experimental part:
as §1

“RIFKKEDCKYI [MSP66–76, eleven residues at the very tip of the loop (residue 66–76)]”: the Liposome leakage in data set [1] (+EDTA) and in data set [1] (without EDTA) was 0% throughout.

B1: β-microseminoprotein (natural protein, human, UniProt P08118 21-114, looked up)
chain: SCYFIPNEGVPGDSTRKCMDLKGNKHPINSEWQTDNCETCTCYETEISCCTLVSTPVGYDKDNCQRIFKKEDCKYIVVEKKDPKKTCSVSEWII
notes: human β-microseminoprotein (MSP, PSP94), native protein purified from seminal plasma; also called MSP; PSP94
B1: the Liposome leakage in [1] (+EDTA) was 4±2%; in data set [1] (without EDTA), 0%. Also, the “Oligomeric state on size exclusion chromatography” value in data set [2] is given as “eluted as a dimer”. Besides, the “Effect on C. albicans by scanning electron microscopy” value in the data set on C. albicans [3] is reported as “aggregated with disrupted membranes causing cell content leakage”. Also, the “Clearing zone in antifungal gel overlay assay” value in the data set with C. albicans [4] is reported as “displayed antifungal activity by producing a clearing zone”. For the same molecule, in [5], the “stoichiometry N” value is 2. In addition, the “Antibacterial activity in CFU assay” value (in the data set on S. agalactiae (SB1); in data set [6]; in the data set with S. aureus (strain 5120); with E. coli (strain 37.4); in data set [7]) was “no antibacterial activity” in each case.

Values taken from PMC3320615, “β-Microseminoprotein Endows Post Coital Seminal Plasma with Potent Candidacidal Activity by a Calcium- and pH-Dependent Mechanism” (PLoS Pathogens, 2012).
